# Results reported in patent publication US20180155712, “COMPOSITIONS AND METHODS FOR IDENTIFYING POLYNUCLEOTIDES OF INTEREST” (The Regents of the University of California, published 2018).
# Target: T7 RNA polymerase (Bacteriophage T7, UniProt P00573 P00573:1-883)
# Assay: functional promoter recovered as cDNA by in vitro transcription and deep sequencing; relative strength not given
# Method: Transcription with T7 RNA polymerase, phenol/chloroform/iso-amyl alcohol extraction, ethanol precipitation, and reverse transcription were performed as described for Examples 1 and 2, above. PCR was done of the resulting cDNA with primers that added appropriate indexed sequences for Illumina deep sequencing, as described above and herein. PCR was also done directly on the library plasmid, again adding the appropriate sequences for Illumina deep sequencing, but with a different index. The appropriately sized PCR products from the cDNA and from the plasmid library were gel purified. An equal mass amount of the two products were mixed and submitted for Illumina MiSeq deep sequencing. Approximately 5 million sequences were generated for each of the cDNA and plasmid library after separation based on the primer indices. For both cDNA and library PCR products, non-promoter sequences were trimmed, promoter sequences were separated based on the number of mutations present in each sequence, and the number of times any given sequence was present was determined. […] See, SEQ ID NOs: 10-73473 listed in the text-formatted computer readable sequence listing filed herewith, and incorporated herein by reference. […]
# Sequence of T7 RNA polymerase (P00573 whole entry, one chain of several): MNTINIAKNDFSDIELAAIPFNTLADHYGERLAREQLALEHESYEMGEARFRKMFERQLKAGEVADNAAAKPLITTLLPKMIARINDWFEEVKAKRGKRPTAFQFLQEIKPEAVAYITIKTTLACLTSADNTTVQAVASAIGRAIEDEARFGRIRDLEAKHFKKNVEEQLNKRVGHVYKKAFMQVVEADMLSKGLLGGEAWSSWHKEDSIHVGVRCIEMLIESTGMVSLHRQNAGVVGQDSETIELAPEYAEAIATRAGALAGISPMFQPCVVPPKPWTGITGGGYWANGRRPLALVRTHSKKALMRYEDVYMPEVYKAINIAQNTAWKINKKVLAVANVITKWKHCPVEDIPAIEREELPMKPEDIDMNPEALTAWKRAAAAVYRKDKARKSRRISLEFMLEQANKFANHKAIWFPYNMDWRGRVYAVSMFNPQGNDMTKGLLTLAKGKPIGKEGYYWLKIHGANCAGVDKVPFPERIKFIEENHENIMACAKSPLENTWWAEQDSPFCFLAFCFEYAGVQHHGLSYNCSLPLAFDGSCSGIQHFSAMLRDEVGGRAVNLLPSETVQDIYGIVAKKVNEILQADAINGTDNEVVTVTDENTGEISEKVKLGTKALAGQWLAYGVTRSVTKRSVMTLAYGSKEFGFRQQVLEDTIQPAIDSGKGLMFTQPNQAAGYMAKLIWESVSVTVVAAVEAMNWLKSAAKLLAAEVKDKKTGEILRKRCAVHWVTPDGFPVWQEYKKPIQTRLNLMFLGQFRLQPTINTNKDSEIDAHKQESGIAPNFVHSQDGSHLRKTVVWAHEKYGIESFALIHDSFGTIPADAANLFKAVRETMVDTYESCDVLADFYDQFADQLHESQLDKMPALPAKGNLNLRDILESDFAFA
binder,measurement,value
mutant T7 promoter SEQ ID NO: 10 (dsDNA) DNA 1: TAATACGACTCGCTATCG DNA 2: CGATAGCGAGTCGTATTA,binding result,binds
